This assay concerns the target Epidermal Growth Factor Receptor (EGFR) (human, UniProt P00533 25-1210). As to the kind of experiment: cell-based or functional assay.

B1: EPI873 (hu15G11v5/Mav2) (bispecific antibody, human IgG1, kappa)
heavy: not shown
light: DIQMTQSPSSLSASVGDRVTITCRASDNLYSNLAWYQQKPGKSPKLLVYDATNLADGVPSRFSGSGSGTDYTLTISSLQPEDFATYYCQHFWGTPLTFGQGTKVEIKRTVAAPSVFIFPPSDEQLKSGTASVVCLLNNFYPREAKVQWKVDNALQSGNSQESVTEQDSKDSTYSLSSTLTLSKADYEKHKVYACEVTHQGLSSPVTKSFNRGEC
chain: not shown
Take B1: the “EGFR cell surface removal (percent; flow cytometry with a labeled anti-EGFR antibody after 24 hours at 50 nM)” value was 76.4%.

B2: EPI1556-1 (hu15G11v5/EgB4) (bispecific antibody, human IgG1, kappa)
heavy: not shown
light: DIQMTQSPSSLSASVGDRVTITCRASDNLYSNLAWYQQKPGKSPKLLVYDATNLADGVPSRFSGSGSGTDYTLTISSLQPEDFATYYCQHFWGTPLTFGQGTKVEIKRTVAAPSVFIFPPSDEQLKSGTASVVCLLNNFYPREAKVQWKVDNALQSGNSQESVTEQDSKDSTYSLSSTLTLSKADYEKHKVYACEVTHQGLSSPVTKSFNRGEC
chain: not shown
Turning to B2, the “EGFR cell surface removal (percent; flow cytometry with a labeled anti-EGFR antibody after 24 hours at 50 nM)” value worked out at 69.2%.

B3: EPI1022-1 (Duligotuzumab/Mav2) (bispecific antibody, human IgG1, kappa)
heavy: not shown
light: DIQMTQSPSSLSASVGDRVTITCRASQNIATDVAWYQQKPGKAPKLLIYSASFLYSGVPSRFSGSGSGTDFTLTISSLQPEDFATYYCQQSEPEPYTFGQGTKVEIKRTVAAPSVFIFPPSDEQLKSGTASVVCLLNNFYPREAKVQWKVDNALQSGNSQESVTEQDSKDSTYSLSSTLTLSKADYEKHKVYACEVTHQGLSSPVTKSFNRGEC
chain: not shown
Take B3: the “EGFR cell surface removal (percent; flow cytometry with a labeled anti-EGFR antibody after 24 hours at 50 nM)” value came to 75.1%.

B4: EPI1527-1 (Duligotuzumab/EgB4) (bispecific antibody, human IgG1, kappa)
heavy: not shown
light: DIQMTQSPSSLSASVGDRVTITCRASQNIATDVAWYQQKPGKAPKLLIYSASFLYSGVPSRFSGSGSGTDFTLTISSLQPEDFATYYCQQSEPEPYTFGQGTKVEIKRTVAAPSVFIFPPSDEQLKSGTASVVCLLNNFYPREAKVQWKVDNALQSGNSQESVTEQDSKDSTYSLSSTLTLSKADYEKHKVYACEVTHQGLSSPVTKSFNRGEC
chain: not shown
With B4, the “EGFR cell surface removal (percent; flow cytometry with a labeled anti-EGFR antibody after 24 hours at 50 nM)” value came to 78.6%.

The record behind these values is US20250388682A1 (EPIBIOLOGICS, published 2025).
